The values that follow are results of earlier work, collected in publication PMC3000440.

Some targets named below: Met (Homo sapiens) (UniProt P08581); EGFR (Homo sapiens) (UniProt P00533); IGF-IR (Homo sapiens) (UniProt P08069); IGF-I (Homo sapiens) (UniProt P05019).
UniProt P08581, sequence (P08581 25-932): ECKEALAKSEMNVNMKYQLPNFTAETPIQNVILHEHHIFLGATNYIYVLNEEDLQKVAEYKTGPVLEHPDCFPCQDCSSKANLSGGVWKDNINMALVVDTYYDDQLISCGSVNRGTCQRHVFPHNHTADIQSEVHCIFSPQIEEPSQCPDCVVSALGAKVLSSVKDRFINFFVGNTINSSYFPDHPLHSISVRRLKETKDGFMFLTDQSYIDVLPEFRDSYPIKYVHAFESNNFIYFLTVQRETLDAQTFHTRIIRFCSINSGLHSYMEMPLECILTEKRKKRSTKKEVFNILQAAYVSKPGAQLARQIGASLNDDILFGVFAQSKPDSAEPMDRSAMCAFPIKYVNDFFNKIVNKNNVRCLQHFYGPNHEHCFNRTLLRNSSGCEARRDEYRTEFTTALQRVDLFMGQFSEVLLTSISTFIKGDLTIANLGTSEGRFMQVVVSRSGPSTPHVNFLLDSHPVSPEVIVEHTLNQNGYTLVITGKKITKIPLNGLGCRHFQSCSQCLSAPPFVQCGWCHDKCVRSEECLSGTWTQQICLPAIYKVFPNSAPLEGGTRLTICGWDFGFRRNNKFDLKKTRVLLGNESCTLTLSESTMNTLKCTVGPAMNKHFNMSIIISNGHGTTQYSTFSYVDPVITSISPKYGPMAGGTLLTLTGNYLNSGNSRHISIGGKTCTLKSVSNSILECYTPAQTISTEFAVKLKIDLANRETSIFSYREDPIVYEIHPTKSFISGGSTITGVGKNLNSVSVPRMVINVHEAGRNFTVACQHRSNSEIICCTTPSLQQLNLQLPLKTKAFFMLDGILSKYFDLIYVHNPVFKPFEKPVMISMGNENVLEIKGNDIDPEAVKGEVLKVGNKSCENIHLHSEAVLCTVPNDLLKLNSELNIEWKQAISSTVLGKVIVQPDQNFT
UniProt P08069, sequence (P08069 31-736, chain 1 of 2): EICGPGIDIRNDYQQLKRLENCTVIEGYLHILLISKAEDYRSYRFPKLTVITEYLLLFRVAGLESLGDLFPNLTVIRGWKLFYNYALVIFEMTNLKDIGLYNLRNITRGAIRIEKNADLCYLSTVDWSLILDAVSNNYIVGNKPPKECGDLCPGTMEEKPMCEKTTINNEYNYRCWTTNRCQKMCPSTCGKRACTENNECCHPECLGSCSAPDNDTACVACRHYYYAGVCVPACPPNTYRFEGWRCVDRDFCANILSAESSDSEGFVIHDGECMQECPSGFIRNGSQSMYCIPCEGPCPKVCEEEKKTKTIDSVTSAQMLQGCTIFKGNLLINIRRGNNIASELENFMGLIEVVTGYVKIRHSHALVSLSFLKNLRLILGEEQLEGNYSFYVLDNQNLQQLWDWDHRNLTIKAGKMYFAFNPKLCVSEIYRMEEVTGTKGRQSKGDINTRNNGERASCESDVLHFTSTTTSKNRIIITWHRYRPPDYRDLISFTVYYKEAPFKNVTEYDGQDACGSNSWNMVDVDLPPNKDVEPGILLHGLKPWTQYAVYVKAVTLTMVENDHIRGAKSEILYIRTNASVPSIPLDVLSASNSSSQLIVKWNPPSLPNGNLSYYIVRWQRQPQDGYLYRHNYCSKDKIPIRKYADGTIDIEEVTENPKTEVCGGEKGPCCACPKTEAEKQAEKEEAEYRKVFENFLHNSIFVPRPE
UniProt P08069, sequence (P08069 741-935, chain 2 of 2): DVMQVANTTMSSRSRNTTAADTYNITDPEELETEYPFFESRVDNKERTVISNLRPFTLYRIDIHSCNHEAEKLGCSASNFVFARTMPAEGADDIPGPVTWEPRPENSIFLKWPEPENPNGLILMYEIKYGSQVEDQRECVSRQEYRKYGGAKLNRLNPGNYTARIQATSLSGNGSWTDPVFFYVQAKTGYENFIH
UniProt P05019, sequence (P05019 49-118): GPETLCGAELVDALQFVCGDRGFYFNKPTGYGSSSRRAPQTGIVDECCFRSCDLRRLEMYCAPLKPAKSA

Consider decorin (from UniProt P07585), for which the dissociation constant (Kd) is 1.5 nM in the data set with Met (Homo sapiens), 87 nM with EGFR (Homo sapiens), 1.5 nM with IGF-IR (Homo sapiens) and 18 nM with IGF-I (Homo sapiens).

What is called Kd is a measure of binding affinity in units of concentration.
